Test results: US20150203556A1 (UAB RESEARCH FOUNDATION, published 2015)

T1: IL-19 (human, UniProt Q9UHD0 25-177)
T1 construct: also called Interleukin-19; IL-19a
T1 sequence: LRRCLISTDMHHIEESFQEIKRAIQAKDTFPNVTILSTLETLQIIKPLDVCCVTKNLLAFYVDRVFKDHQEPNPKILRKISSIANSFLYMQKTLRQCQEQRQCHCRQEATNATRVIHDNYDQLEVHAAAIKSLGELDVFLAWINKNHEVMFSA

T2: IL-20 (human, UniProt Q9NYY1 25-176)
T2 construct: The crystal model holds residues 24-176; also called Interleukin-20; IL-20b
T2 sequence: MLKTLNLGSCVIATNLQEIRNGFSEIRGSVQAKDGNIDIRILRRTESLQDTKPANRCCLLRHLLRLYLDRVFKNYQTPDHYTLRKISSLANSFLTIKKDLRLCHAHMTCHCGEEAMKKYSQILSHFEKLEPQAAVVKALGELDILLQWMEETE

T3: IL-20R1 triple mutant M3 (UniProt Q9UHF4 29-245)
T3 construct: range 29-245; also called IL-20R1 site 3 mutant
T3 sequence (looked up): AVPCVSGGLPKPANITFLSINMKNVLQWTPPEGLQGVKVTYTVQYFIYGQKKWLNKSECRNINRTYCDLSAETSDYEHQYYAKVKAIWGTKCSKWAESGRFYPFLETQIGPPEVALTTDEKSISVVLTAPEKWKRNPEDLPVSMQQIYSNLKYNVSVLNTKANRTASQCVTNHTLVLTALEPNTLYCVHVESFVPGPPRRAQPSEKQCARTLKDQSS

T4: IL-22R1 (sIL-22R1DDQ) (Homo sapiens (Human), UniProt Q8N6P7 16-226, limits assumed)
T4 chain: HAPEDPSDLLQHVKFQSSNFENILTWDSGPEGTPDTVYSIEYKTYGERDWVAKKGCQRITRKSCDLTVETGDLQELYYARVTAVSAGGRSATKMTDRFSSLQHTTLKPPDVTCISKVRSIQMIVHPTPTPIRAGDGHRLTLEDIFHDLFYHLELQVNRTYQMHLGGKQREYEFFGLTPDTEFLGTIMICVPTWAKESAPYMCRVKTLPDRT

T5: IL-22 (Homo sapiens (Human), UniProt Q9GZX6 35-179, limits assumed)
T5 construct: also called IL-22 wt
T5 sequence: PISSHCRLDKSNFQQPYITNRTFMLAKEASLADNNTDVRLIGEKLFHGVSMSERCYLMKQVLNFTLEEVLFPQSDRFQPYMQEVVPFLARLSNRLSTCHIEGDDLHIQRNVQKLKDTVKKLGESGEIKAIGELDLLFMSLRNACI

B1: IL-20R1-FC (Fc fusion)
chain: VPCVSGGLPKPANITFLSINMKNVLQWTPPEGLQGVKVTYTVQYFIYGQKKWLNKSECRNINRTYCDLSAETSDYEHQYYAKVKAIWGTKCSKWAESGRFYPFLETQIGPPEVALTTDEKSISVVLTAPEKWKRNPEDLPVSMQQIYSNLKYNVSVLNTKSNRTWSQCVTNHTLVLTWLEPNTLYCVHVESFVPGPPRRAQPSEKQCARTLKDQSSEFKAKGSGGGGPSVFIFPPKIKDVLMISLSPIVTCVVVDVSEDDPDVQISWFVNNVEVHTAQTQTHREDYNSTLRVVSALPIQHQDWMSGKEFKCKVNNKDLPAPIERTISKPKGSVRAPQVYVLPPPCEEMTKKQVTLYCMVTDFMPEDIYVEWTNNGKTELNYKNTEPVLDSDGSYFMYSKLRVEKKNWVERNSYSCSVVHEGLHNHHTTKSFSRTPGKGLEASGGLNDIFEAQKIEWHEGTGHHHHHH
notes: also called IL-20R-fc
B2: IL-19/IL-20R2 binary complex (other)
chain 1: T1 sequence
chain 2: DEVAILPAPQQLSVLSTNMKHLLMWSPVIAPGETVYYSVEYQGEYESLYTSHIWIPSSWCSLTEGPECDVTDDITATVPYNLRVRATLGSQTSAWSILKHPFNRQSTILTRPGMEITKDGFHLVIELEDLGPQFEFLVAYWRREPGAEEHVKMVRSGGIPVHLETMEPGAAYCVKAQTFVKAIGRYSAFSQTECVEVQGEA
notes: IL-19 with IL-20R2 that carries no FC: amine coupled on the chip, or soluble; also called IL-19+soluble IL-20R2
B3: soluble IL-20R2 (receptor)
chain: B2 chain 2
notes: also called IL-20R2* (amine coupled IL-20R2)
B4: IL-20/IL-20R2 binary complex (other)
chain 1: T2 sequence
chain 2: B2 chain 2
notes: also called 20 + 20R2; IL-20+soluble IL-20R2
B5: IL22R1ddq-FCkh (MONO) (Fc fusion)
chain: AHAPEDPSDLLQHVKFQSSNFENILTWDSGPEGTPDTVYSIEYKTYGERDWVAKKGCQRITRKSCDLTVETGDLQELYYARVTAVSAGGRSATKMTDRFSSLQHTTLKPPDVTCISKVRSIQMIVHPTPTPIRAGDGHRLTLEDIFHDLFYHLELQVNRTYQMHLGGKQREYEFFGLTPDTEFLGTIMICVPTWAKESAPYMCRVKTLPDRTWTYSGSGGGGPSVFIFPPKIKDVLMISLSPIVTCVVVDVSEDDPDVQISWFVNNVEVHTAQTQTHREDYNSTLRVVSALPIQHQDWMSGKEFKCKVNNKDLPAPIERTISKPKGSVRAPQVYVLPPPCEEMTKKQVTLYCMVTDFMPEDIYVEWTNNGKTELNYKNTEPVLDSDGSYFMYSKLRVEKKNWVERNSYSCSVVHEGLHNHHTTKSFSRTPGKGLEASGGLNDIFEAQKIEWHEGTGHHHHHH

Assays:
IL-19 [1] = target: T1, IL-19; assay: SPR, IL-19 (10 µM, 2-fold diluted to 0.625 µM) injected over IL-20R1 (IL-20R1-fc in Table 4)
Protocol: (§1) FIGS. 12A-12H are graphs showing IL19/IL-20 receptor interactions and complex stability. SPR sensorgrams, data fits (black lines), KD values, and residual errors obtained for complexes described at the top of each panel. Panels are labeled as injected soluble proteins, followed by a semicolon (:), then the protein coupled to chip surface, IL-20R1 or IL-20R2. FIGS. 12A and 12B show injection of IL-19 and IL-20 (max conc.=10 μM, 2 fold diluted to 0.625 μM) over IL-20R1. FIGS. 12C and 12D show injection of IL-19 (max conc.=500 nM, 2-fold diluted to 3.91 nM) or IL-20 (max conc.=2000 nM, 2-fold diluted to 62.5 nM) over IL-20R2. FIGS. 12E-12H show IL-19 and IL-20 (fixed at 250 nM) mixed with different concentrations of IL-20R1, or IL-22R1, (max conc.=1000 nM, 2-fold diluted to 7.81 nM) and injected over IL-20R2. To estimate R1 chain affinity/complex stability, the contribution of the ligand was removed by using the 250 nM IL-19, or IL-20, sensorgram as the blank subtraction. All sensorgrams were fit to 1:1 binding models.
(§2) Surface Plasmon Resonance Experiments SPR experiments were performed on Biacore T-100, and T-200, (GE healthcare, Waukesha, Wis.) systems. […] Soluble proteins were injected for 75-90 seconds (30 uL/min) over the surfaces, and the dissociation phase was followed for 75-120 seconds depending on the stability of the complex being analyzed. […]

IL-20 [2] = target: T2, IL-20; assay: SPR, site KD as listed in Table 5
IL-20 [3] = target: T2, IL-20; assay: SPR (Biacore), IL-20 (10-0.625 µM) over IL-20R1-fc captured by anti-FC Ab
Protocol: as §1, §2

IL-20R1 triple mutant M3 = target: T3, IL-20R1 triple mutant M3; assay: SPR, IL-19 co-injected with M3 over an IL-20R2 coupled Biacore chip
Protocol: FIGS. 9A-9D show the IL-20 site 3 interface is essential and distinct from other complexes. FIG. 9A is a ribbon diagram showing the site 3 interface between IL-20R1 and IL-20R2. FIG. 9B is a graph showing the importance of the site 3 interface in ternary complex formation. SPR sensograms obtained by injecting cytokines (IL-19 or IL-20, at 250 nM) and/or receptors (IL-20R1 or M3, at 425 nM), as labeled on the figure, over an IL-20R2 coupled biacore chip. Injection of IL-20+IL-20R1 results in a large response consistent with ternary complex formation. However, injection of IL-20+M3, an IL-20R1 site 3 mutant with S190^IL-20R1, W194^IL-20R1, and W207^IL-20R1 mutated to alanine drastically reduces binding due to disruption of ternary complex formation. Similar results are observed for complex formation by IL-19. FIG. 9C is a ribbon diagram of the superposition of the D2 domains of GHR site 1, IL-6R, and IL-20R1. The positions of the D2 domains of GHR site2, GP130, and IL-20R2 are shown, along with a schematic of the differences in their orientations. FIG. 9D is a ribbon diagram showing the putative model of the IL-22/IL-22R1/IL-10R2 complex based on the IL-20 ternary complex structure. […]

IL-20 [4] = target: T2, IL-20; assay: SPR (Biacore), IL-20 over amine coupled IL-20R2, equilibrium affinity (no rate constants)
IL-19 [5] = target: T1, IL-19; assay: SPR (Biacore), IL-19 over amine coupled IL-20R2, 1:1 fit
Protocol: as §1
Surface Plasmon Resonance Experiments SPR experiments were performed on Biacore T-100, and T-200, (GE healthcare, Waukesha, Wis.) systems. Soluble IL-20R2 was amine coupled (100-130 RU) to CM5 research grade biacore chips in 10 mM sodium acetate, pH 5.0. IL-20R1-FC and IL-20R2-FC were coupled (60-120 RU) to CM5 chips using an anti-FC Ab coupling kit using the manufacturer's instructions (GE healthcare, Waukesha, Wis.). All binding experiments were performed in running buffer consisting of 10 mM Hepes, pH 7.4, 150 mM NaCl, 0.04% P20, and 0.1 mg/mL bovine serum albumin (Sigma, St. Louis, Mo.). No regeneration was performed between sample injections on IL-20R2 amine-coupled surfaces. IL-20R1-FC and IL-20R2-FC surfaces were regenerated after each sample injection with a 3-minute injection of glycine, pH 1.7. Soluble proteins were injected for 75-90 seconds (30 uL/min) over the surfaces, and the dissociation phase was followed for 75-120 seconds depending on the stability of the complex being analyzed. […]

IL-20R1-FC = target: B1; assay: SPR co-injection: IL-20 (1000-31.25 nM) with soluble IL-20R2 fixed at 500 nM over IL-20R1-FC surface, 1:1 fit
Protocol: (§3) FIGS. 13A-13D are graphs showing stability of IL-19 and IL-20 ternary complexes. Stability of the ternary complexes were determined by co-injecting IL-19+soluble IL-20R2 (FIGS. 13B and 13D), or IL-20+soluble IL-20R2 (FIGS. 13A and 13C), over an IL-20R1-FC coupled surface. The concentration of soluble IL-20R2 in these experiments was fixed at 500 nM. IL-19 and IL-20 concentrations varied from 1000 nM to 31.25 nM (2 fold dilutions). IL-19/soluble IL-20R2 and IL-20/IL-20R2 were also injected over an IL-22R1 coupled surface. The SPR sensorgrams are labeled as injected proteins, followed by a semicolon (:), then the protein coupled to the chip surface, IL-20R1 or IL-22R1. All sensograms yielding binding responses were fit to 1:1 binding models.
(§4) Surface Plasmon Resonance Experiments SPR experiments were performed on Biacore T-100, and T-200, (GE healthcare, Waukesha, Wis.) systems. Soluble IL-20R2 was amine coupled (100-130 RU) to CM5 research grade biacore chips in 10 mM sodium acetate, pH 5.0. IL-20R1-FC and IL-20R2-FC were coupled (60-120 RU) to CM5 chips using an anti-FC Ab coupling kit using the manufacturer's instructions (GE healthcare, Waukesha, Wis.). All binding experiments were performed in running buffer consisting of 10 mM Hepes, pH 7.4, 150 mM NaCl, 0.04% P20, and 0.1 mg/mL bovine serum albumin (Sigma, St. Louis, Mo.). No regeneration was performed between sample injections on IL-20R2 amine-coupled surfaces. IL-20R1-FC and IL-20R2-FC surfaces were regenerated after each sample injection with a 3-minute injection of glycine, pH 1.7. Soluble proteins were injected for 75-90 seconds (30 uL/min) over the surfaces, and the dissociation phase was followed for 75-120 seconds depending on the stability of the complex being analyzed. Where possible, the resultant sensorgrams were fit to 1:1 binding models using Biacore T-200 evaluation software version 1.

IL-22R1 (sIL-22R1DDQ) = target: T4, IL-22R1 (sIL-22R1DDQ); assay: SPR co-injection: IL-20 (1000-31.25 nM) with soluble IL-20R2 fixed at 500 nM over IL-22R1 coupled surface, 1:1 fit
Protocol: as §3, §4

IL-22 = target: T5, IL-22; assay: SPR, IL-22 as analyte over IL22R1ddq-FCkh (MONO) as ligand

Question: Does B1 bind (IL-19 [1])?
Answer: no binding (tested: 10 µM)

Question: What about the Kd (IL-20 [2]) of the same binder?
Answer: ~9000 nM

Question: What about the Kd (IL-20 [3]) of the same binder?
Answer: ~9000 nM

Question: Does B2 bind (IL-20R1 triple mutant M3)?
Answer: no binding (tested: 425 nM M3 with 250 nM IL-19)

Question: B3 was tested. Which Kd (IL-20 [4]) did it give?
Answer: 870 nM

Question: And the Kd (IL-19 [5])?
Answer: 36.3 nM

Question: What about the koff (IL-19 [5]) of the same binder?
Answer: 0.0398 s⁻¹

Question: And the kon (IL-19 [5])?
Answer: 1.1e+06 M⁻¹ s⁻¹

Question: With B4 as the binder, how does the Kd (IL-20R1-FC) read?
Answer: 1070 nM

Question: What about the koff (IL-20R1-FC) of the same binder?
Answer: 0.0168 s⁻¹

Question: And the kon (IL-20R1-FC)?
Answer: 15700 M⁻¹ s⁻¹

Question: What about the Kd (IL-22R1 (sIL-22R1DDQ)) of the same binder?
Answer: 1160 nM

Question: And the koff (IL-22R1 (sIL-22R1DDQ))?
Answer: 0.238 s⁻¹

Question: And the kon (IL-22R1 (sIL-22R1DDQ))?
Answer: 205000 M⁻¹ s⁻¹

Question: With B5 as the binder, how does the Kd (IL-22) read?
Answer: 3.34 nM
